Laboratory results: paper PMC3519878

Assay: SEC; HiLoad 16/60 Superdex 75 pg; protein purified by Ni2+-NTA injected at 0.5 mM

| Substance | area of the peak at 63 min (elutes as a dimer would), percent of monomer peak area |
| --- | --- |
| mMaple | 6.7% vs. 25.8% of monomer peak area |
| mClavGR2 | 6.7% vs. 25.8% of monomer peak area |
